From patent US20170165365A1 (SYMPHOGEN A S, published 2017) come the findings set out here.

By Kd is commonly meant the concentration at which binding is half-saturated. Lower therefore signals a tighter complex. A word on the koff: it is the first-order rate constant of dissociation. Low values mean slow dissociation, high ones fast dissociation. By kon is commonly meant the rate constant with which the complex forms. Low values mean slow association, high ones fast association.

Changes are numbered by the printed parent chain.

T1: murine HER4 antigen (mouse, UniProt Q61527 26-652, limits assumed)
T1 construct: In-house antigen coated for ELISA; also called mouse HER4
T1 sequence (looked up): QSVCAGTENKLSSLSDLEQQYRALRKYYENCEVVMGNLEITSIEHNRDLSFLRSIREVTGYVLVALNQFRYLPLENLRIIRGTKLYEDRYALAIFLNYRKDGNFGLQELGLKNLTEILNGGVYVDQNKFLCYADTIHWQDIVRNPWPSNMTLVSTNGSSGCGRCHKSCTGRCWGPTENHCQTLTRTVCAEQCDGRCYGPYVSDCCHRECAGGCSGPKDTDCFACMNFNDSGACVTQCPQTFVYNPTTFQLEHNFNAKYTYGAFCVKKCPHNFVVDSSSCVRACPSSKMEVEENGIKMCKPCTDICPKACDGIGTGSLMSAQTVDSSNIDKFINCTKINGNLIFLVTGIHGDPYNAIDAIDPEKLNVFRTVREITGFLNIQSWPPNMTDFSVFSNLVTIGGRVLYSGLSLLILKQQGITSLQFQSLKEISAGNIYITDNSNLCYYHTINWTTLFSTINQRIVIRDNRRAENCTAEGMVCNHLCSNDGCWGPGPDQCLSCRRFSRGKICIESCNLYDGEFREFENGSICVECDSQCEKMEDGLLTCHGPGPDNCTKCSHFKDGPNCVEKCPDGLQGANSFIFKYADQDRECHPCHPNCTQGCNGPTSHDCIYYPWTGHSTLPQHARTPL

T2: human HER4 antigen (human, UniProt Q15303 26-649, limits assumed)
T2 construct: Antigen coated for ELISA
T2 sequence (looked up): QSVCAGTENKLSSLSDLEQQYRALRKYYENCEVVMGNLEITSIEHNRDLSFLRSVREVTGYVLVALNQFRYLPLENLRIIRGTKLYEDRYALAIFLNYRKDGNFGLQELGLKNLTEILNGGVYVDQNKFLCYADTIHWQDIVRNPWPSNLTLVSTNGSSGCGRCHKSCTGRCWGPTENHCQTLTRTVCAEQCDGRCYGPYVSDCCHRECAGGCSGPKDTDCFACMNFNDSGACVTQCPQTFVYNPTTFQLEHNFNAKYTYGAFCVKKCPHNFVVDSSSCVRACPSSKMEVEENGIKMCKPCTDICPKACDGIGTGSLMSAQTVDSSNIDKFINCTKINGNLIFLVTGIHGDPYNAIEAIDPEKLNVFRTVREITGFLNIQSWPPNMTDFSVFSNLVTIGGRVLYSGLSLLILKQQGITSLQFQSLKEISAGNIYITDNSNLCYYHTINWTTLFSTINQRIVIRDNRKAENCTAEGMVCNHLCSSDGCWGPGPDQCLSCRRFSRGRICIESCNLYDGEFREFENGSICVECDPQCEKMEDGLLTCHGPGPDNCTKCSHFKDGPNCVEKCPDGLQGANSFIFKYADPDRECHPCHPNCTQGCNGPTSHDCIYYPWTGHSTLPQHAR

B1: chimeric anti-HER3 antibody 5082 (antibody, V domains shown)
VH: EVQLKESGPGLVKPSQSLSLTCSVTGYSITSAYYWNWIRQFPGNKVEWMGYIGYDGRNTYNPSLKNRISITRDTSKNQFFLKLNSLTTEDTATYYCSREGDYGYSDYWGQGTTLTVS
VL: DIVMTQATSSLSASLGDRVTVSCRASQDINNYLNWYQQKPDGTVKLLIYYTSRLQSGVPSRFSGSGSGIDYSLTISNLEQEDFVTYFCQQSETLPWTFGGGTKLELKR
notes: light chain entry is full length
B2: humanized anti-HER3 antibody 10738 (antibody, V domains shown)
VH: QVQLQESGPGLVKPSQTLSLTCTVSGYSITSGFYWTWIRQHPGKGLEWMGFISYSGSNNYNPSLKNRITISVDTSKNQFSLKLSSVTAADTAVYYCARGGGYYGNLFDYWGQGTLVTVSS
VL: DIQMTQSPSSLSASVGDRVTITCRPSQDISNYVNWFQQKPGKAVKLLIFHTSRLHSGVPSRFSGSGSGTDFTFTISSLQPEDIAIYYCQQGITLPWTFGQGTKVEIK
B3: humanized anti-HER3 antibody 10810 (antibody, V domains shown)
VH: B2 VH with K44N, M49I, I68V, V93T
VL: B2 VL with V44P, F73L, I85T
B4: chimeric anti-HER3 antibody 5038 (antibody, V domains shown)
VH: EVKLVESGPGLVKPSQSLSLTCSVTGYSITSGFYWTWIRQFPGNKLEWMGFISYDGSNNYNPSLKNRISITRDTSKNQFFLKLNSVTTEDTATYYCARGGGYYGNLFDYWGQGTTLTVS
VL: DIVMTQTTSSLSASLGDRVTISCRPSQDISNYVNWFQQKPGGTVKLLIFHTSRLHSGVPSRFSGSGSGTDYSLTISTLEQEDIAIYFCQQGITLPWTFGGGTKLEIKR
notes: as for B1
B5: humanized anti-EGFR antibody 10460 (antibody, V domains shown)
VH: EVQLVESGGGLVQPGGSLRLSCAASGFAFSYSDMSWVRQAPGKRLEWVSYMSSAGDVTFYSDTVKGRFTISRDNAKNSLYLQVNSLRAEDTAVYYCVRHRDVAIDYWGQGTTVTVSS
VL: DVVMTQSPLSLPVTLGQPASISCRSSQSLVHSNGNTYLHWYQQRPGQSPRLLIYKVSNRFSGVPDRFSGSGSGTDFTLKISRVEAEDVGVYFCSQSTHVPTFGGGTKLEIK

T4 sequence (P70424 23-653 limits assumed): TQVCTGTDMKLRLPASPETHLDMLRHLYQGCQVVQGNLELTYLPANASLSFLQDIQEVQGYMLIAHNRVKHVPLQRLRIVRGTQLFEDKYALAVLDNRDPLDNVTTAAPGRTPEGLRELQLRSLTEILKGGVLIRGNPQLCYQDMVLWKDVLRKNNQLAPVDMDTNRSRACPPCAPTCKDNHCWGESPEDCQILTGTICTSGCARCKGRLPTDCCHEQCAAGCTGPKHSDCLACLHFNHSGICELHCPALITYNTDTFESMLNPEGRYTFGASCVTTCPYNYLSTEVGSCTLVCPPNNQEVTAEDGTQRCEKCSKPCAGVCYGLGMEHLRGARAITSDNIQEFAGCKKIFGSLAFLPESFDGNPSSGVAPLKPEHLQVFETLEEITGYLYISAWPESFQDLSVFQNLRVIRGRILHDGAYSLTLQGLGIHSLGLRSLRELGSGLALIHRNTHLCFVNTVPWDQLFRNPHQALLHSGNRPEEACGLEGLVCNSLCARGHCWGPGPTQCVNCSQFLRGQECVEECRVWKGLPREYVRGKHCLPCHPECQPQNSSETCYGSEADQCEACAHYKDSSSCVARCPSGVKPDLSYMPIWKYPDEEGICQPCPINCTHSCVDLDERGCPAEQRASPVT

In the first assay the target is T3, human EGFR antigen (Sino Biologicals) (human, UniProt P00533 25-645).
T3 construct: Bought soluble antigen; also called human antigen
The experiment in a line: ELISA, coated hu EGFR. As for the experimental part:
(§1) Antibody-antigen binding was measured by ELISA with coated antigens. Human antigens were obtained from Sino Biologicals. All other antigens were produced in-house by transient expression in CHO or HEK293 cells. Chimeric and humanized antibodies, as well as an isotype control antibody, were incubated with the coated antigens at different concentrations. After wash, bound antibodies were detected by HRP-(horse radish peroxidase)-conjugated secondary antibodies.
For the molecule B1, the binding result is listed as “no binding (tested: 40 nM)”.

Consider B2, for which the binding result is “no binding (tested: 40 nM)”.

In the case of B3, the binding result is on record as “no binding (tested: 40 nM)”.

As for B4, the binding result is “no binding (tested: 40 nM)”.

Another assay has as its target T1, murine HER4 antigen. Nature of the assay: ELISA, coated mu HER4. As for the experimental part: as §1
(ELISA stands for enzyme-linked immunosorbent assay.)
In the case of B1, the binding result is recorded as “no binding (tested: 40 nM)”.

B2: the binding result was “no binding (tested: 40 nM)”.

As to B3, the binding result is “no binding (tested: 40 nM)”.

Regarding B4, the binding result was “no binding (tested: 40 nM)”.

Take B5: the binding result was “no binding (tested: 40 nM)”.

The next assay has as its target T4, mouse HER2 antigen (mouse, UniProt P70424 23-653, limits assumed).
T4 construct: In-house antigen coated for ELISA; also called mouse antigen; murine HER2
The experiment in a line: ELISA, coated mu HER2. The protocol:
as §1
B1: the binding result is “no binding (tested: 40 nM)”.

With B2, the binding result is “no binding (tested: 40 nM)”.

B3: the binding result was “no binding (tested: 40 nM)”.

Turning to B4, the binding result was “no binding (tested: 40 nM)”.

Turning to B5, the binding result is “no binding (tested: 40 nM)”.

The next assay addresses T5, cynomolgus EGFR antigen (cynomolgus monkey, UniProt A0A2K5WK39 25-645).
T5 construct: In-house antigen; also called cynomolgus antigen
Nature of the assay: ELISA, coated cy EGFR. As for the experimental part:
as §1
Regarding B1, the binding result is given as “no binding (tested: 40 nM)”.

With B2, the binding result was “no binding (tested: 40 nM)”.

Consider B3, for which the binding result was “no binding (tested: 40 nM)”.

For B4, the binding result is recorded as “no binding (tested: 40 nM)”.

In a further assay the target is T6, mouse HER3 antigen (mouse, UniProt Q61526 20-641, limits assumed).
T6 construct: In-house antigen coated for ELISA; also called mouse antigen; murine HER3
T6 sequence (Q61526 20-641 limits assumed): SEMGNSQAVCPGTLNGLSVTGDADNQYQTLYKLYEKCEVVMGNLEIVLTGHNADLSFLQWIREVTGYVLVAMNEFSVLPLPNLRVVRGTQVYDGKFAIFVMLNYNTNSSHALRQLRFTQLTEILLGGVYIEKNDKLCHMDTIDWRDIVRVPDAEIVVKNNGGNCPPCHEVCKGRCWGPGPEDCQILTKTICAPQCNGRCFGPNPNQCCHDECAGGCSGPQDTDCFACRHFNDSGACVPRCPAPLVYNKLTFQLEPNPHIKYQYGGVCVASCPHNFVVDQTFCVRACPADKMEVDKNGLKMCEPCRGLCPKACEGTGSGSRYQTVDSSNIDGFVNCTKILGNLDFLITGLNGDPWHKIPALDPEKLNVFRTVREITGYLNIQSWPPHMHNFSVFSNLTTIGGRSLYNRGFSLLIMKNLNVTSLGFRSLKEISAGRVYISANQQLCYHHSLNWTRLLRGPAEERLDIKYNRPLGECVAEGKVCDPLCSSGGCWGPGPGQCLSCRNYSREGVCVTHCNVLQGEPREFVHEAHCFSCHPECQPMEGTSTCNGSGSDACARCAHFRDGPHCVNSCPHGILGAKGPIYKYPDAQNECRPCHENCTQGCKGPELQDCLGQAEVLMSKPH
Nature of the assay: ELISA, coated mu HER3. The protocol:
as §1
B1: the binding result is “no binding (tested: 40 nM)”.

For B2, the binding result was “no binding (tested: 40 nM)”.

Regarding B3, the binding result is “no binding (tested: 40 nM)”.

Turning to B4, the binding result is reported as “no binding (tested: 40 nM)”.

Turning to B5, the binding result is reported as “no binding (tested: 40 nM)”.

Another assay concerns the target T7, human HER3 antigen (Sino Biologicals) (human, UniProt P21860 20-643).
T7 construct: Bought soluble antigen; also called human antigen
The experiment in a line: SPR (ProteOn XPR36), IgG captured by anti-human Fc, soluble monovalent antigen, 1:1 fit. The protocol:
(§2) Kinetic binding analysis of the purified humanized variants was performed on a ProteOn™ XPR36 biosensor (BioRad, USA) employing an IgG capture assay as described by Canziani et al. (Anal. Biochem. (2004) 325:301-307) that allows for measurement of antibody affinities of whole IgG molecules against soluble antigen under monovalent conditions. Briefly, approximately 5000 resonance units (RU) of a monoclonal mouse anti-human IgG Fc antibody (GE Healthcare, Denmark) was conjugated to a GLC chip surface (BioRad, USA) according to the manufacturer's instructions, followed by capture of individual antibodies of the invention or a negative control on the anti-Fc sensor surface. […] Next, 250 μl monovalent antigen (Sino Biologicals) was injected at a flow rate of 50 μl/min in serial threefold dilutions from 100 nM stock to generate response curves. The chip surface was regenerated between cycles by stripping the captured antibody/antigen complexes off the surface with a 10-second injection of 3 M MgCl₂ (GE Healthcare, Denmark) repeated three times. Finally, binding responses were fitted to a Langmuir 1:1 binding model for calculation of the on-rate (kon or ka), off-rate (koff or kd) and affinity (KD) constants using double referencing.
Take B1: binding was characterised by a dissociation constant (Kd) of 0.08 nM, the koff was 7.3e-05 s⁻¹ and the kon was 910000 M⁻¹ s⁻¹.

B3 gave a Kd of 1.1 nM, an off-rate constant (koff) of 0.0002 s⁻¹ and a kon of 190000 M⁻¹ s⁻¹.

In turn, B4 registered a Kd of 1.6 nM, a koff of 0.00048 s⁻¹ and a kon of 300000 M⁻¹ s⁻¹.

A further assay deals with T8, cynomolgus HER3 antigen (cynomolgus monkey, UniProt G7PIG5 20-643).
T8 construct: In-house antigen; also called cynomolgus antigen
T8 sequence (G7PIG5 entry or part of it): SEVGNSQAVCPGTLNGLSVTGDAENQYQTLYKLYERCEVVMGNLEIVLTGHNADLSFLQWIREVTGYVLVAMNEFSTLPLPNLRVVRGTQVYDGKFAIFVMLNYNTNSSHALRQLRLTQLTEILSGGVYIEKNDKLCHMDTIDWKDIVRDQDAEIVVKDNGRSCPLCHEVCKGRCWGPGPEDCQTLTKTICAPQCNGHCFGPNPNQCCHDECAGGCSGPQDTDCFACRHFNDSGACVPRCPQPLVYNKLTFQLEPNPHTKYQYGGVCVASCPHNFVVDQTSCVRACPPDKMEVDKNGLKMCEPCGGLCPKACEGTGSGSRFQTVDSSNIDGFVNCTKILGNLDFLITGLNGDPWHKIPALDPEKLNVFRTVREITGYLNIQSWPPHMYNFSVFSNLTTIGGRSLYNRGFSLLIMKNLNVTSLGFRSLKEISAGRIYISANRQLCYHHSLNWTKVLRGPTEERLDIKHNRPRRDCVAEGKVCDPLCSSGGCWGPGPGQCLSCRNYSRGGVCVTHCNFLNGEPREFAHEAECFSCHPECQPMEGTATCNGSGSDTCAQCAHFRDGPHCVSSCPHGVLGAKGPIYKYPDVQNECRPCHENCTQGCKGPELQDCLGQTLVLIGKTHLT
The description is as above. As for the experimental part: as §2
Take B1: binding was characterised by a dissociation constant (Kd) of 0.098 nM, the koff turned out to be 0.00016 s⁻¹ and the kon worked out at 1.7e+06 M⁻¹ s⁻¹.

B2 showed a Kd of 0.54 nM.

In turn, B3 yielded a Kd of 0.71 nM, a koff of 0.00034 s⁻¹ and an association rate constant (kon) of 470000 M⁻¹ s⁻¹.

B4 had a Kd of 0.89 nM, a koff of 0.00041 s⁻¹ and a kon of 460000 M⁻¹ s⁻¹.

A further assay concerns the target T2, human HER4 antigen. The experiment in a line: ELISA, coated hu HER4. As for the experimental part: as §1
Consider B1, for which the binding result is “no binding (tested: 40 nM)”.

Regarding B2, the binding result is on record as “no binding (tested: 40 nM)”.

In the case of B3, the binding result was “no binding (tested: 40 nM)”.

In the case of B4, the binding result is reported as “no binding (tested: 40 nM)”.

For B5, the binding result is “no binding (tested: 40 nM)”.

A further assay addresses T9, human HER2 antigen (Sino Biologicals) (human, UniProt P04626 23-652).
T9 construct: Bought soluble antigen; also called human antigen
Nature of the assay: ELISA, coated hu HER2. The protocol:
as §1
For B1, the binding result is given as “no binding (tested: 40 nM)”.

Regarding B2, the binding result is reported as “no binding (tested: 40 nM)”.

Turning to B3, the binding result is recorded as “no binding (tested: 40 nM)”.

Turning to B4, the binding result was “no binding (tested: 40 nM)”.

Consider B5, for which the binding result is listed as “no binding (tested: 40 nM)”.

A further assay has as its target T8, cynomolgus HER3 antigen. The experiment in a line: ELISA, coated cy HER3. As for the experimental part:
as §1
Regarding B5, the binding result was “no binding (tested: 40 nM)”.

The target in another assay is T7, human HER3 antigen (Sino Biologicals). The experiment in a line: ELISA, coated hu HER3. The protocol:
as §1
Regarding B5, the binding result is reported as “no binding (tested: 40 nM)”.

Another assay concerns the target T10, mouse EGFR antigen (mouse, UniProt Q01279 25-647, limits assumed).
T10 construct: In-house antigen coated for ELISA; also called mouse antigen; murine EGFR
The experiment in a line: ELISA, coated mu EGFR. As for the experimental part:
as §1
As to B1, the binding result is given as “no binding (tested: 40 nM)”.

B2: the binding result is reported as “no binding (tested: 40 nM)”.

As to B3, the binding result is on record as “no binding (tested: 40 nM)”.

Turning to B4, the binding result was “no binding (tested: 40 nM)”.

With B5, the binding result was “no binding (tested: 40 nM)”.
